Reference: the supplement of paper PMC11908140

B1: library; numbered along this chain (parent)
chain: MRKPRAAVGSGHRKQAASQEGRQKHAKNNSQAKPSACDGLARQPEEVVLQASVSSYHLFRDVAEVTAFRGSLLSWYDQEKRDLPWRRRAEDEMDLDRRAYAVWVSEVMLQQTQVATVINYYTGWMQKWPTLQDLASASLEEVNQLWAGLGYYSRGRRLQEGARKVVEELGGHMPRTAETLQQLLPGVGRYTAGAIASIAFGQATGVVDGNVARVLCRVRAIGADPSSTLVSQQLWGLAQQLVDPARPGDFNQAAMELGATVCTPQRPLCSQCPVESLCRARQRVEQEQLLASGSLSGSPDVEECAPNTGQCHLCLPPSEPWDQTLGVVNFPRKASRKPPREESSATCVLEQPGALGAQILLVQRPNSGLLAGLWEFPSVTWEPSEQLQRKALLQELQRWAGPLPATHLRHLGEVVHTFSHIKLTYQVYGLALEGQTPVTTVPPGARWLTQEEFHTAAVSTAMKKVFRVYQGQQPGTCMGSKRSQVSSPCSRKKPRMGQQVLDNFFRSHISTDAHSLNSAAQ

Variants of: B1
Experiment: 8OG:A repair function score (normalized; synonymous = 0, nonsense = -1) (normalized log-likelihood score); higher = more repair activity (WT-like)
Details: with 8OG:A DNA repair reporter (GFP) in HEK-293 MUTYH KO cells
Method in brief: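 Lentiviral MUTYH cDNA NNN codon-scan libraries were expressed in MUTYH knockout HEK-293 cells with 10 pg/ml doxycycline, and the cells received an 8OG:A GFP repair reporter together with mCherry. At 72 h, viable mCherry+ cells went into GFP+ (repair) or GFP− bins, three replicates per tile, before tile amplicons were sequenced. A repair function score was then built from per-tile Rosace fitness scores, anchored on the synonymous and nonsense distributions. Synonymous medians sat at 0 and nonsense at -1, and variants under 300 counts per million at the start were left out.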
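Also: cells sorted at 72 h after reporter transfection.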

Row | Variant | 8OG:A repair function score
1 | MRKPRAAVGSGHRKQAASQEGRQKHAKNNSQAKPSACDGLARQPEEVVLQASVSSYHLFRDVAEVTAFRGSLLSWYDQEKRDLPWRRRAEDEMDLDRRAYAVWVSEVMLQQTQVATVINYYTGWMQKWPTLQDLASASLEEVNQLWAGLGYYSRGRRLQEGARKVVEELGGHMPRTAETLQQLLPGVGRYTAGAIASIAFGQATGVVDGNVARVLCRVRAIGADPSSTLVSQQLWGLAQQLVDPARPGDFNQAAMELGATVCTPQRPLCSQCPVESLCRAKQRVEQEQLLASGSLSGSPDVEECAPNTGQCHLCLPPSEPWDQTLGVVNFPRKASRKPPREESSATCVLEQPGALGAQILLVQRPNSGLLAGLWEFPSVTWEPSEQLQRKALLQELQRWAGPLPATHLRHLGEVVHTFSHIKLTYQVYGLALEGQTPVTTVPPGARWLTQEEFHTAAVSTAMKKVFRVYQGQQPGTCMGSKRSQVSSPCSRKKPRMGQQVLDNFFRSHISTDAHSLNSAAQ [R281K] | -0.09
2 | MRKPRAAVGSGHRKQAASQEGRQKHAKNNSQAKPSACDGLARQPEEVVLQASVSSYHLFRDVAEVTAFRGSLLSWYDQEKRDLPWRRRAEDEMDLDRRAYAVWVSEVMLQQTQVATVINYYTGWMQKWPTLQDLASASLEEVNQLWAGLGYYSRGRRLQEGARKVVEELGGHMPRTAETLQQLLPGVGRYTAGAIASIAFGQATGVVDGNVARVLCRVRAIGADPSSTLVSQQLWGLAQQLVDPARPGDFNQAAMELGATVCTPQRPLCSQCPVESLCRADQRVEQEQLLASGSLSGSPDVEECAPNTGQCHLCLPPSEPWDQTLGVVNFPRKASRKPPREESSATCVLEQPGALGAQILLVQRPNSGLLAGLWEFPSVTWEPSEQLQRKALLQELQRWAGPLPATHLRHLGEVVHTFSHIKLTYQVYGLALEGQTPVTTVPPGARWLTQEEFHTAAVSTAMKKVFRVYQGQQPGTCMGSKRSQVSSPCSRKKPRMGQQVLDNFFRSHISTDAHSLNSAAQ [R281D] | -0.447
3 | MRKPRAAVGSGHRKQAASQEGRQKHAKNNSQAKPSACDGLARQPEEVVLQASVSSYHLFRDVAEVTAFRGSLLSWYDQEKRDLPWRRRAEDEMDLDRRAYAVWVSEVMLQQTQVATVINYYTGWMQKWPTLQDLASASLEEVNQLWAGLGYYSRGRRLQEGARKVVEELGGHMPRTAETLQQLLPGVGRYTAGAIASIAFGQATGVVDGNVARVLCRVRAIGADPSSTLVSQQLWGLAQQLVDPARPGDFNQAAMELGATVCTPQRPLCSQCPVESLCRAHQRVEQEQLLASGSLSGSPDVEECAPNTGQCHLCLPPSEPWDQTLGVVNFPRKASRKPPREESSATCVLEQPGALGAQILLVQRPNSGLLAGLWEFPSVTWEPSEQLQRKALLQELQRWAGPLPATHLRHLGEVVHTFSHIKLTYQVYGLALEGQTPVTTVPPGARWLTQEEFHTAAVSTAMKKVFRVYQGQQPGTCMGSKRSQVSSPCSRKKPRMGQQVLDNFFRSHISTDAHSLNSAAQ [R281H] | 0.00153
4 | MRKPRAAVGSGHRKQAASQEGRQKHAKNNSQAKPSACDGLARQPEEVVLQASVSSYHLFRDVAEVTAFRGSLLSWYDQEKRDLPWRRRAEDEMDLDRRAYAVWVSEVMLQQTQVATVINYYTGWMQKWPTLQDLASASLEEVNQLWAGLGYYSRGRRLQEGARKVVEELGGHMPRTAETLQQLLPGVGRYTAGAIASIAFGQATGVVDGNVARVLCRVRAIGADPSSTLVSQQLWGLAQQLVDPARPGDFNQAAMELGATVCTPQRPLCSQCPVESLCRACQRVEQEQLLASGSLSGSPDVEECAPNTGQCHLCLPPSEPWDQTLGVVNFPRKASRKPPREESSATCVLEQPGALGAQILLVQRPNSGLLAGLWEFPSVTWEPSEQLQRKALLQELQRWAGPLPATHLRHLGEVVHTFSHIKLTYQVYGLALEGQTPVTTVPPGARWLTQEEFHTAAVSTAMKKVFRVYQGQQPGTCMGSKRSQVSSPCSRKKPRMGQQVLDNFFRSHISTDAHSLNSAAQ [R281C] | -0.173
5 | MRKPRAAVGSGHRKQAASQEGRQKHAKNNSQAKPSACDGLARQPEEVVLQASVSSYHLFRDVAEVTAFRGSLLSWYDQEKRDLPWRRRAEDEMDLDRRAYAVWVSEVMLQQTQVATVINYYTGWMQKWPTLQDLASASLEEVNQLWAGLGYYSRGRRLQEGARKVVEELGGHMPRTAETLQQLLPGVGRYTAGAIASIAFGQATGVVDGNVARVLCRVRAIGADPSSTLVSQQLWGLAQQLVDPARPGDFNQAAMELGATVCTPQRPLCSQCPVESLCRAGQRVEQEQLLASGSLSGSPDVEECAPNTGQCHLCLPPSEPWDQTLGVVNFPRKASRKPPREESSATCVLEQPGALGAQILLVQRPNSGLLAGLWEFPSVTWEPSEQLQRKALLQELQRWAGPLPATHLRHLGEVVHTFSHIKLTYQVYGLALEGQTPVTTVPPGARWLTQEEFHTAAVSTAMKKVFRVYQGQQPGTCMGSKRSQVSSPCSRKKPRMGQQVLDNFFRSHISTDAHSLNSAAQ [R281G] | -0.264
6 | MRKPRAAVGSGHRKQAASQEGRQKHAKNNSQAKPSACDGLARQPEEVVLQASVSSYHLFRDVAEVTAFRGSLLSWYDQEKRDLPWRRRAEDEMDLDRRAYAVWVSEVMLQQTQVATVINYYTGWMQKWPTLQDLASASLEEVNQLWAGLGYYSRGRRLQEGARKVVEELGGHMPRTAETLQQLLPGVGRYTAGAIASIAFGQATGVVDGNVARVLCRVRAIGADPSSTLVSQQLWGLAQQLVDPARPGDFNQAAMELGATVCTPQRPLCSQCPVESLCRAAQRVEQEQLLASGSLSGSPDVEECAPNTGQCHLCLPPSEPWDQTLGVVNFPRKASRKPPREESSATCVLEQPGALGAQILLVQRPNSGLLAGLWEFPSVTWEPSEQLQRKALLQELQRWAGPLPATHLRHLGEVVHTFSHIKLTYQVYGLALEGQTPVTTVPPGARWLTQEEFHTAAVSTAMKKVFRVYQGQQPGTCMGSKRSQVSSPCSRKKPRMGQQVLDNFFRSHISTDAHSLNSAAQ [R281A] | -0.0465
7 | MRKPRAAVGSGHRKQAASQEGRQKHAKNNSQAKPSACDGLARQPEEVVLQASVSSYHLFRDVAEVTAFRGSLLSWYDQEKRDLPWRRRAEDEMDLDRRAYAVWVSEVMLQQTQVATVINYYTGWMQKWPTLQDLASASLEEVNQLWAGLGYYSRGRRLQEGARKVVEELGGHMPRTAETLQQLLPGVGRYTAGAIASIAFGQATGVVDGNVARVLCRVRAIGADPSSTLVSQQLWGLAQQLVDPARPGDFNQAAMELGATVCTPQRPLCSQCPVESLCRAFQRVEQEQLLASGSLSGSPDVEECAPNTGQCHLCLPPSEPWDQTLGVVNFPRKASRKPPREESSATCVLEQPGALGAQILLVQRPNSGLLAGLWEFPSVTWEPSEQLQRKALLQELQRWAGPLPATHLRHLGEVVHTFSHIKLTYQVYGLALEGQTPVTTVPPGARWLTQEEFHTAAVSTAMKKVFRVYQGQQPGTCMGSKRSQVSSPCSRKKPRMGQQVLDNFFRSHISTDAHSLNSAAQ [R281F] | -0.126
8 | MRKPRAAVGSGHRKQAASQEGRQKHAKNNSQAKPSACDGLARQPEEVVLQASVSSYHLFRDVAEVTAFRGSLLSWYDQEKRDLPWRRRAEDEMDLDRRAYAVWVSEVMLQQTQVATVINYYTGWMQKWPTLQDLASASLEEVNQLWAGLGYYSRGRRLQEGARKVVEELGGHMPRTAETLQQLLPGVGRYTAGAIASIAFGQATGVVDGNVARVLCRVRAIGADPSSTLVSQQLWGLAQQLVDPARPGDFNQAAMELGATVCTPQRPLCSQCPVESLCRAIQRVEQEQLLASGSLSGSPDVEECAPNTGQCHLCLPPSEPWDQTLGVVNFPRKASRKPPREESSATCVLEQPGALGAQILLVQRPNSGLLAGLWEFPSVTWEPSEQLQRKALLQELQRWAGPLPATHLRHLGEVVHTFSHIKLTYQVYGLALEGQTPVTTVPPGARWLTQEEFHTAAVSTAMKKVFRVYQGQQPGTCMGSKRSQVSSPCSRKKPRMGQQVLDNFFRSHISTDAHSLNSAAQ [R281I] | -0.176
9 | MRKPRAAVGSGHRKQAASQEGRQKHAKNNSQAKPSACDGLARQPEEVVLQASVSSYHLFRDVAEVTAFRGSLLSWYDQEKRDLPWRRRAEDEMDLDRRAYAVWVSEVMLQQTQVATVINYYTGWMQKWPTLQDLASASLEEVNQLWAGLGYYSRGRRLQEGARKVVEELGGHMPRTAETLQQLLPGVGRYTAGAIASIAFGQATGVVDGNVARVLCRVRAIGADPSSTLVSQQLWGLAQQLVDPARPGDFNQAAMELGATVCTPQRPLCSQCPVESLCRAEQRVEQEQLLASGSLSGSPDVEECAPNTGQCHLCLPPSEPWDQTLGVVNFPRKASRKPPREESSATCVLEQPGALGAQILLVQRPNSGLLAGLWEFPSVTWEPSEQLQRKALLQELQRWAGPLPATHLRHLGEVVHTFSHIKLTYQVYGLALEGQTPVTTVPPGARWLTQEEFHTAAVSTAMKKVFRVYQGQQPGTCMGSKRSQVSSPCSRKKPRMGQQVLDNFFRSHISTDAHSLNSAAQ [R281E] | -0.484
10 | MRKPRAAVGSGHRKQAASQEGRQKHAKNNSQAKPSACDGLARQPEEVVLQASVSSYHLFRDVAEVTAFRGSLLSWYDQEKRDLPWRRRAEDEMDLDRRAYAVWVSEVMLQQTQVATVINYYTGWMQKWPTLQDLASASLEEVNQLWAGLGYYSRGRRLQEGARKVVEELGGHMPRTAETLQQLLPGVGRYTAGAIASIAFGQATGVVDGNVARVLCRVRAIGADPSSTLVSQQLWGLAQQLVDPARPGDFNQAAMELGATVCTPQRPLCSQCPVESLCRVRQRVEQEQLLASGSLSGSPDVEECAPNTGQCHLCLPPSEPWDQTLGVVNFPRKASRKPPREESSATCVLEQPGALGAQILLVQRPNSGLLAGLWEFPSVTWEPSEQLQRKALLQELQRWAGPLPATHLRHLGEVVHTFSHIKLTYQVYGLALEGQTPVTTVPPGARWLTQEEFHTAAVSTAMKKVFRVYQGQQPGTCMGSKRSQVSSPCSRKKPRMGQQVLDNFFRSHISTDAHSLNSAAQ [A280V] | -0.0812
11 | MRKPRAAVGSGHRKQAASQEGRQKHAKNNSQAKPSACDGLARQPEEVVLQASVSSYHLFRDVAEVTAFRGSLLSWYDQEKRDLPWRRRAEDEMDLDRRAYAVWVSEVMLQQTQVATVINYYTGWMQKWPTLQDLASASLEEVNQLWAGLGYYSRGRRLQEGARKVVEELGGHMPRTAETLQQLLPGVGRYTAGAIASIAFGQATGVVDGNVARVLCRVRAIGADPSSTLVSQQLWGLAQQLVDPARPGDFNQAAMELGATVCTPQRPLCSQCPVESLCRWRQRVEQEQLLASGSLSGSPDVEECAPNTGQCHLCLPPSEPWDQTLGVVNFPRKASRKPPREESSATCVLEQPGALGAQILLVQRPNSGLLAGLWEFPSVTWEPSEQLQRKALLQELQRWAGPLPATHLRHLGEVVHTFSHIKLTYQVYGLALEGQTPVTTVPPGARWLTQEEFHTAAVSTAMKKVFRVYQGQQPGTCMGSKRSQVSSPCSRKKPRMGQQVLDNFFRSHISTDAHSLNSAAQ [A280W] | -0.57
12 | MRKPRAAVGSGHRKQAASQEGRQKHAKNNSQAKPSACDGLARQPEEVVLQASVSSYHLFRDVAEVTAFRGSLLSWYDQEKRDLPWRRRAEDEMDLDRRAYAVWVSEVMLQQTQVATVINYYTGWMQKWPTLQDLASASLEEVNQLWAGLGYYSRGRRLQEGARKVVEELGGHMPRTAETLQQLLPGVGRYTAGAIASIAFGQATGVVDGNVARVLCRVRAIGADPSSTLVSQQLWGLAQQLVDPARPGDFNQAAMELGATVCTPQRPLCSQCPVESLCRYRQRVEQEQLLASGSLSGSPDVEECAPNTGQCHLCLPPSEPWDQTLGVVNFPRKASRKPPREESSATCVLEQPGALGAQILLVQRPNSGLLAGLWEFPSVTWEPSEQLQRKALLQELQRWAGPLPATHLRHLGEVVHTFSHIKLTYQVYGLALEGQTPVTTVPPGARWLTQEEFHTAAVSTAMKKVFRVYQGQQPGTCMGSKRSQVSSPCSRKKPRMGQQVLDNFFRSHISTDAHSLNSAAQ [A280Y] | -0.51
